Measurements from publication PMC5217639, “Structural prediction of the interaction of the tumor suppressor p27^KIP1 with cyclin A/CDK2 identifies a novel catalytically relevant determinant” (BMC Bioinformatics, 2017).

Tests used:
cyclin A/CDK2 = target: T1, cyclin A/CDK2 (Homo sapiens, UniProt P24941); test: In vitro kinase assay of cyclin A/CDK2 on biotinylated p27KIP1 substrate peptides (Michaelis-Menten kinetics); assay type: biochemical; settings: for Relative rate (maximal relative rate of phosphoryl transfer) / Km: 50 μM ATP and 1 μCi 32P-γ-ATP, 10 min, 30°C, 50 mM Tris-HCl pH 7.5, 10 mM MgCl2, SAM2 membrane, scintillation counting, Michaelis-Menten fit (GraphPad Prism), Fig. 5: mean values ± SD of 5 experiments performed in duplicates; for Km: peptide substrate
T1 construct: made in house; host or cells: Sf9 insect cells (Spodoptera frugiperda), baculovirus co-infection
Procedure: Fig. 5 Analysis of cyclin A/CDK2 kinase activity on p27^KIP1 substrate peptides. Cyclin A/CDK2 Kinase purified from Sf9 cells was incubated with increasing concentrations of p27^KIP1 wild type and the R194A mutant peptide as indicated. Phosphorylation of the peptides was monitored after immobilisation on SAM2 membrane by scintillation counting and analysis by GraphPad Prism software. Shown are mean values ± SD of 5 experiments performed in duplicates
Human cyclin A/CDK2 complexes were expressed in SF9 insect cells (Spodoptera frugiperda) upon infection with recombinant baculo viruses encoding either cyclin A or CDK2. The complex was purified using the GST tag of cyclin A [49]. In vitro kinase assays of cyclin A/CDK2 were performed in kinase buffer (50 mM Tris-HCl, pH 7.5, 10 mM MgCl2, 1 mM EGTA, 1 mM DTT, 40 mM α-glycero-phosphate, 20 mM p-nitrophenylphosphate, 0.1 mM sodium vanadate, 0.01% BriJ 35) containing 50 μM ATP and 1 μCi ^32P-γ-ATP for 10 min at 30°C in the presence of increasing amount of biotinylated p27^KIP1 wild type or R194A (an arginine to alanine substitution at position 194) peptides as substrates. The assays were terminated by adding 12.5 μl 7.5 M guanidine hydrochloride. The peptides were immobilized on SAM2 Biotin Capture Membranes (Promega), extensively washed as described in the manufacturer’s protocol, and then monitored for radioactivity in a liquid scintillation counter to calculate the specific kinase activity. Kinetic parameters were determined with GraphPad Prism software built-in “Enzyme kinetic Michaelis-Menten”. The sequence of the p27^KIP1 wild type peptide corresponds to amino acids 180 to 194. The peptides were synthesized with a biotin-PEG-20-linker and purified by HPLC at the Peptide Specialty Laboratories, Heidelberg (Germany).

[1] = target: Human cyclin A/CDK2 complex (human) (UniProt P20248)

Row | Relative rate (maximal relative rate of phosphoryl transfer) (cyclin A/CDK2) | Km (cyclin A/CDK2) | turnover rate of the wt peptide relative to the R194A mutant peptide (cyclin A/CDK2; wt versus R194A, in words) | Km of peptide phosphorylation by cyclin A/CDK2, in vitro kinase assay (32P-γ-ATP, 50 μM ATP, 10 min, 30°C) [1] | Relative rate/Km of peptide phosphorylation by cyclin A/CDK2, in vitro kinase assay [1] | maximal relative rate of phosphoryl transfer by cyclin A/CDK2, in vitro kinase assay [1] | Substance
1 | 2.21 pmol/min | 93.6 µM | twice as high |  |  |  | N180AGSVEQTPKKPGLR [wt, p27KIP1 wild type peptide corresponding to amino acids 180 to 194]
2 |  |  |  | 93.6 µM | 0.0195 | 2.21 pmol/min | p27^KIP1 wild-type peptide (amino acids 180 to 194)
3 | 1.11 pmol/min | 81.4 µM |  |  |  |  | N180AGSVEQTPKKPGLA [Peptide R194A, p27KIP1 peptide with an arginine to alanine substitution at position 194]
4 |  |  |  | 81.4 µM | 0.0135 | 1.11 pmol/min | p27^KIP1 R194A peptide (amino acids 180 to 194)
